Here are results for four molecules from publication PMC7544203.

Series [1] has as its target T1, YTHDC1 YTH domain (Homo sapiens, UniProt Q96MU7 345-509). The experiment in a line: ITC. (In general: Isothermal titration calorimetry measures the heat released or taken up as one component is titrated into another.)
Series [2] concerns the target T1, YTHDC1 YTH domain. The experiment in a line: X-ray crystallography.

The term Kd denotes the concentration at which binding is half-saturated. High values mean lower affinity, low ones higher affinity.

In the case of CGCGGACTCTG (ssDNA, none) [unmodified 11-nt ssDNA], the binding result in the series with YTHDC1 YTH domain [1] is recorded as “no binding”.
Take CGCGGACTTC (ssDNA, N6-methyladenine at A6) [10-nt N6mA ssDNA]: the binding result with YTHDC1 YTH domain [2] is “binds”.
In the case of CGCGGACTCTG (ssDNA, N6-methyladenine at A6) [11-nt N6mA ssDNA], binding in the series with YTHDC1 YTH domain [1] was characterised by a dissociation constant (Kd) of 10 nM.
Regarding CGCGGACUCUG (ssRNA, none) [unmodified 11-nt ssRNA], in the series with YTHDC1 YTH domain [1], the binding result was “no binding”.
